Measurements from the supplement of paper PMC10567573.

B1: SNX8 (parent)
chain: RMVPALPPKRMLGADREFIEARRR
B2: ANKRD40 (parent)
chain: VCCCELGVNPDQVEKIRKLPNTLL

Variants of: B1
Experiment: protein stability index of a GFP-peptide fusion (GPS, HEK-293T) (PSI 1-6); higher = more stable
Conditions: c terminus: a fixed tail appended
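Further: lentivirally expressed fusions sorted by FACS into six bins by GFP to DsRed ratio, PSI derived from sequencing read proportions per bin multiplied by bin number.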

Protein stability index of substitutions, site by site:
A5: R 4.31; W 3.06; C 3.85; Q 4.1; G 3.84; I 3.2; L 4; T 3.81; D 4.23; Y 3.12; M 3.49; N 4.08; V 4.01; P 3.59; K 3.77; S 4.05; H 3.75; E 4.12; F 3.24
V3: Q 3.9; S 3.88; K 4.11; D 4.63; F 2.99; L 1.85; T 4.1; I 2.38; W 1.7; E 4.49; M 1.29; A 3.31; Y 2.96; H 3.54; C 3.5; N 4.08; G 3.07; P 3.81; R 3.94
R1: L 1.96; M 2.88; F 2.22; C 3.28; T 2.69; Y 1.81; D 2.87; G 3.77; H 2.3; A 3.86; V 3.18; W 1.94; E 3.56; Q 3.54; K 3.74; P 3.83; N 2.71; S 3.8; I 3.21
P8: D 3.82; F 3.18; H 3.85; C 2.77; A 4.23; I 3.02; G 3.53; E 3.86
P7: G 4.01; D 3.87; K 3.91; Y 3.49; W 3.3; C 2.91; Q 3.5; E 4.35; M 3.52; I 3.62; H 3.75; L 3.18; A 3.58; S 4.08; R 3.76; N 3.45; F 3.4; V 4.05; T 3.6
L6: G 3.88; T 3.63; E 4.52; F 3.45; K 3.73; Q 4.02; Y 3.39; R 4.3; I 3.96; W 3.15; M 3.73; C 3.67; S 4.84; V 3.97; N 3.96; D 4.44; A 4
M2: H 4.04; Y 3.57; D 4.17; I 3.01; S 4.46; K 4.1; V 3.58; L 2.76; P 4.53; C 3.22; G 3.83; Q 4.57; E 4.52; N 3.99; T 4.08; F 3.44; W 2.14; R 3.94; A 3.94
P4: S 3.69; L 2.28; T 3.34; Q 3.49; H 3.09; G 3.87; V 3.58; K 3.81; A 3.32; N 3.41; Y 3.31; C 3.62; W 2.77; R 4.13; M 3.1; F 2.98; E 3.67; I 2.52; D 3.57

Variants of: B2
Experiment: as above
Conditions: c terminus: a fixed tail appended

Protein stability index of substitutions, site by site:
V1: C 1.96; D 3.1; I 1.2; K 2.35; Y 1.85; L 2.04; W 1.79; H 2.21; F 1.5; Q 2.19; E 2.83
C4: H 2.27; W 1.98; L 1.73; D 3.17; V 2.74; Y 1.85; G 2.12; E 3
P20: D 1.48; M 1.57; Q 1.87; T 2.2; H 2.55; G 2.08; R 1.91; I 1.38; C 1.38; V 1.82
C3: G 2.19; V 2.53; N 1.82; L 2.03; Y 2.27; I 1.69; P 1.97; F 1.24
L19: W 2.73; E 2.73; G 3.13; D 2.9; N 2.23; Y 1.76; V 2.62; I 2.25; F 1.57; H 1.79; K 2.48
C2: Q 3.56; T 2.72; S 2.76; E 3.52; F 1.9
G7: E 2.13; Q 2.02; D 1.96; N 1.43; S 1.72; R 1.78
N9: Y 1.78; H 1.83; I 1.88; P 2; C 1.66; D 2.01; E 1.7; M 2.23; A 1.47
K15: I 1.39; N 1.94; V 2.12; S 2.34; L 2.34; Y 2.09; E 2.81; Q 2.23; A 1.68; H 1.36
L6: H 2.15; T 2.13; I 1.8; E 2.76; W 1.66; N 2.47; C 2.06; M 2.3; S 2.68
V13: G 2.5; F 1.4; A 1.71; H 1.77; Y 1.84; T 1.76; N 2.38; P 2.18; R 2.27; M 1.67; Q 2.42
E14: K 1.48; Y 2.09; W 2.21; D 1.66; R 1.05; G 1.89
P10: V 2.01; T 1.98; Y 1.31; K 2.02
V8: W 1.58; F 1.3; L 1.34; I 1.79; E 2.39; G 2.33; N 1.99; A 1.86
L23: P 2.75; R 1.66; T 2.33; I 1.6; Y 1.45; G 2.51; A 1.98; C 1.71; H 2.67; S 2.25; F 1.51
T22: N 1.71; F 2.2; Y 1.63; P 2.21; C 1.72; I 2.06; S 1.79; V 1.33; D 2.5; M 2.1
D11: P 1.24; S 1.9; K 1.89; T 1.69; L 1.91; A 1.79; M 2.41; Q 1.63
K18: V 2.15; F 2.53; Q 1.54; D 2.08; H 2.95; L 1.72; S 2.08; C 1.75
L24: Q 2.48; G 2.56; W 2.1; C 2.12; T 1.94; P 2.12; V 1.96; A 1.71
N21: Y 2.47; S 1.9; L 1.94; D 2.43; R 1.34; E 2.02
E5: S 2.81; G 1.33; D 1.89
Q12: A 2.09; E 2.16; S 2.3; N 1.75; M 2.03; C 2.06; R 1.67; G 2.07; K 1.76
I16: S 2.08; T 2.56; R 2.12; W 2.13; Y 1.51; D 2.76; M 1.67; N 3.14; F 1.69
R17: K 2.29; I 3.09; N 1.67; Y 1.92; F 1.92; A 1.81; Q 1.62
